According to US20250179187A1 (REJUVERON SENESCENCE THERAPEUTICS, published 2025):
Residue numbers refer to the chain shown, from its start.

B1: VH0/VK0 chimeric antibody (hIgG1 backbone) (antibody, V domains shown)
VH: QVQLQQSGAELVRPGTSVKVSCKASGYAFSNYFIEWVKQRPGQGLEWIGLNIPGSGGSNYAEKFKGKATLTADKSSSTAYMQLSSLTSEDSAVYFCARRRLPPDWYFDVWGTGTTVTVSS
VL: DVVMTQTPLSLPVSLGDQASISCRSSQSLVHSDGNTYLHWYLQKPGQSPKLLIYKVSNRFSGVPDRFSGSGSGTDFTLKISRVEAEDLGVYFCSQSTHVPWTFGGGTKLEIK
notes: Mouse variable regions on human IgG1 backbone, expressed in CHO cells; also called chimeric anti-PDL2 lead mAb VH0/VK0
B2: VH6/VK1 (antibody, V domains shown)
VH: QVQLVQSGAEVKKPGSSVKVSCKASGYSFSNYFIEWVKQPPGKGLEWIGLNIPGSGGSNYAEKFKGRVTITADKSTSTAYMELSSLRSEDTAVYYCARRRLPPDWYFDVWGQGTTVTVSS
VL: B1 VL with T7S, S14T, D17Q, Q18P, L42Q, S48P, L88V, L109V
notes: hIgG1 backbone, CHO expressed
B3: VH6/VK2 (antibody, V domains shown)
VH: B2 VH
VL: B1 VL with T7S, S14T, D17Q, Q18P, L42Q, S48P, L88V, F92Y, L109V
notes: hIgG1 backbone, CHO expressed
B4: VH6/VK3 (antibody, V domains shown)
VH: B2 VH
VL: B1 VL with T7S, S14T, D17Q, Q18P, D33G, L42Q, S48P, L88V, L109V
notes: hIgG1 backbone, CHO expressed
B5: VH7/VK2 (antibody, V domains shown)
VH: B2 VH with V11L, S28A, V68A
VL: B1 VL with T7S, S14T, D17Q, Q18P, L42Q, S48P, L88V, F92Y, L109V
notes: hIgG1 backbone, CHO expressed
B6: VH0/VK1 (antibody, V domains shown)
VH: B1 VH
VL: B1 VL with T7S, S14T, D17Q, Q18P, L42Q, S48P, L88V, L109V
notes: hIgG1 backbone, CHO expressed
B7: VH1/VK0 (antibody, V domains shown)
VH: B2 VH with V11L, S28A, V68A, R87T, T91S, Y95F
VL: B1 VL
notes: hIgG1 backbone, CHO expressed
B8: VH1/VK1 (antibody, V domains shown)
VH: B2 VH with V11L, S28A, V68A, R87T, T91S, Y95F
VL: B1 VL with T7S, S14T, D17Q, Q18P, L42Q, S48P, L88V, L109V
notes: hIgG1 backbone, CHO expressed
B9: VH1/VK2 (antibody, V domains shown)
VH: B2 VH with V11L, S28A, V68A, R87T, T91S, Y95F
VL: B1 VL with T7S, S14T, D17Q, Q18P, L42Q, S48P, L88V, F92Y, L109V
notes: hIgG1 backbone, CHO expressed
B10: VH1/VK3 (antibody, V domains shown)
VH: B2 VH with V11L, S28A, V68A, R87T, T91S, Y95F
VL: B1 VL with T7S, S14T, D17Q, Q18P, D33G, L42Q, S48P, L88V, L109V
notes: hIgG1 backbone, CHO expressed
B11: VH2/VK1 (antibody, V domains shown)
VH: B2 VH with S28A, V68A, T91S, Y95F
VL: B1 VL with T7S, S14T, D17Q, Q18P, L42Q, S48P, L88V, L109V
notes: hIgG1 backbone, CHO expressed
B12: VH2/VK2 (antibody, V domains shown)
VH: B2 VH with S28A, V68A, T91S, Y95F
VL: B1 VL with T7S, S14T, D17Q, Q18P, L42Q, S48P, L88V, F92Y, L109V
notes: hIgG1 backbone, CHO expressed
B13: VH2/VK3 (antibody, V domains shown)
VH: B2 VH with S28A, V68A, T91S, Y95F
VL: B1 VL with T7S, S14T, D17Q, Q18P, D33G, L42Q, S48P, L88V, L109V
notes: hIgG1 backbone, CHO expressed
B14: VH3/VK1 (antibody, V domains shown)
VH: B2 VH with S28A, T91S, Y95F
VL: B1 VL with T7S, S14T, D17Q, Q18P, L42Q, S48P, L88V, L109V
notes: hIgG1 backbone, CHO expressed
B15: VH3/VK2 (antibody, V domains shown)
VH: B2 VH with S28A, T91S, Y95F
VL: B1 VL with T7S, S14T, D17Q, Q18P, L42Q, S48P, L88V, F92Y, L109V
notes: hIgG1 backbone, CHO expressed
B16: VH3/VK3 (antibody, V domains shown)
VH: B2 VH with S28A, T91S, Y95F
VL: B1 VL with T7S, S14T, D17Q, Q18P, D33G, L42Q, S48P, L88V, L109V
notes: hIgG1 backbone, CHO expressed
B17: VH4/VK1 (antibody, V domains shown)
VH: B2 VH with S28A
VL: B1 VL with T7S, S14T, D17Q, Q18P, L42Q, S48P, L88V, L109V
notes: hIgG1 backbone, CHO expressed
B18: VH4/VK2 (antibody, V domains shown)
VH: B2 VH with S28A
VL: B1 VL with T7S, S14T, D17Q, Q18P, L42Q, S48P, L88V, F92Y, L109V
notes: hIgG1 backbone, CHO expressed
B19: VH4/VK3 (antibody, V domains shown)
VH: B2 VH with S28A
VL: B1 VL with T7S, S14T, D17Q, Q18P, D33G, L42Q, S48P, L88V, L109V
notes: hIgG1 backbone, CHO expressed
B20: VH7/VK1 (antibody, V domains shown)
VH: B2 VH with V11L, S28A, V68A
VL: B1 VL with T7S, S14T, D17Q, Q18P, L42Q, S48P, L88V, L109V
notes: hIgG1 backbone, CHO expressed
B21: VH7/VK3 (antibody, V domains shown)
VH: B2 VH with V11L, S28A, V68A
VL: B1 VL with T7S, S14T, D17Q, Q18P, D33G, L42Q, S48P, L88V, L109V
notes: hIgG1 backbone, CHO expressed
B22: VH8/VK1 (antibody, V domains shown)
VH: B2 VH with S28A, V68A
VL: B1 VL with T7S, S14T, D17Q, Q18P, L42Q, S48P, L88V, L109V
notes: hIgG1 backbone, CHO expressed
B23: VH8/VK3 (antibody, V domains shown)
VH: B2 VH with S28A, V68A
VL: B1 VL with T7S, S14T, D17Q, Q18P, D33G, L42Q, S48P, L88V, L109V
notes: hIgG1 backbone, CHO expressed

Biological target: T1, human PD-L2 on CHO-K1 cells of the Promega PD-1/PD-L2 blockade bioassay (human, UniProt Q9BQ51 20-273)
T1 sequence (looked up): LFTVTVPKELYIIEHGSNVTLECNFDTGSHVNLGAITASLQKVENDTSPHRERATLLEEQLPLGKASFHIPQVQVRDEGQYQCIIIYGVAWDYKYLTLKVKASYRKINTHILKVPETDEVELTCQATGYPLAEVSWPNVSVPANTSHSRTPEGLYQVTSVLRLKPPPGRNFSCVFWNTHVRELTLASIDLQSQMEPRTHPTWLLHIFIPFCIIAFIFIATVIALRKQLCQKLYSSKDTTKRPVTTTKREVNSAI
Experiment: cell-based or functional assay

| Binder | EC50 (PD-1/PD-L2 blockade reporter assay, luminescence) |
| --- | --- |
| B1 | 0.64 nM |
| B2 | 0.82 nM |
| B3 | 0.64 nM |
| B4 | 0.62 nM |
| B5 | 0.6 nM |

Biological target: T2, mouse PD-L2 on CHO-K1 cells over-expressing mPD-L2 GFP (mouse, UniProt Q9WUL5 20-247)
T2 construct: whole, on cells; also called cellular mPD-L2; not shown: GFP of the mPD-L2 GFP construct
T2 sequence (looked up): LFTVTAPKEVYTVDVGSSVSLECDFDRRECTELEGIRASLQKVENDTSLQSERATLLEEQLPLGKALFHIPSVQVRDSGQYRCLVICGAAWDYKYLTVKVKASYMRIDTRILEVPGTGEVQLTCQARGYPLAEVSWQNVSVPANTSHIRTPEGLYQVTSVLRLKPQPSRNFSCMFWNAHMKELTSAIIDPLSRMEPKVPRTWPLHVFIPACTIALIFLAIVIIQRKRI
Experiment: flow cytometry on CHO-K1 cells overexpressing mPD-L2, mean fluorescence
Experimental: CHO-K1 cells over-expressing either hPDL2-GFP or mPD-L2 GFP were detached, washed in phosphate buffered saline (PBS) and adjusted to a cell concentration of around 1 million cells in cytometry buffer (CB, PBS containing 1% […]). Around 80,000 cells were then distributed into a round-bottom 96 well plate and the plate was centrifuged for 3 minutes at 400 g at 4° C. and supernatant discarded. Appropriate antibody concentrations in 50 microliter volumes were added to the wells and incubated for 30 minutes at 6-8° C. The plate was washed 3 times with PBS and relevant secondary antibodies (either AlexaFluor 647 Goat anti-Mouse IgG (H+L) (Invitrogen A21235/lot 1915807) or AlexaFluor 647 Goat anti-Rat IgG (H+L) (Invitrogen A21247/lot 1921562) were added for 30 minutes at 4° C. Cells were again washed with PBS two times, resuspended in CB and analyzed in either the Sony ID7000 Spectral Cell analyzer (Sony) or the GALLIOS Flow Cytometer (Beckman-Coulter) was used. EC₅₀ was calculated using the Sigmoidal 4PL equation of the GraphPad Prism-9 software.

| Binder | EC50 |
| --- | --- |
| B1 | 0.16 nM |

Biological target: T1, human PD-L2 on CHO-K1 cells of the …
Experiment: cell-based or functional assay
Remark: another data set of the same source

| Binder | EC50 (PD-1/PD-L2 blockade reporter assay, luminescence) |
| --- | --- |
| B4 | 1.11 nM |

Biological target: T3, recombinant human PD-L2 (human PD-L2 antigen) (human, UniProt Q9BQ51 20-219, limits assumed)
T3 construct: The Biacore analyte and the ELISA antigen are only called human PD-L2 antigen / recombinant hPD-L2; Whole entry named; also called hPD-L2; recombinant hPD-L2
T3 sequence (looked up): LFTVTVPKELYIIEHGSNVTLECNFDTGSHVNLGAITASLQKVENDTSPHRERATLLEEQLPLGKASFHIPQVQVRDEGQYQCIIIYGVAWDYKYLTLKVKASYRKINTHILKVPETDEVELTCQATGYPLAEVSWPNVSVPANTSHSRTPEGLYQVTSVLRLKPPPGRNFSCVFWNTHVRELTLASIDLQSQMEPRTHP
Experiment: SPR (Biacore 8K), single cycle kinetics, antibody in culture supernatant, human PD-L2 antigen
Description: Table 2: Single cycle kinetic parameters of chimeric (VH0/VK0) and humanized variants (tested as cell culture supernatants) binding to human PD-L2 antigen as determined using the Biacore 8K. As used herein, the term “KD” is intended to refer to the dissociation equilibrium constant of a particular antibody-antigen interaction, ka is the binding rate constant and kd is the dissociation rate constant. The binding affinity of antibodies of the disclosed invention may be measured or determined by standard antibody-antigen assays. The relative KD was calculated by dividing the KD of the humanized variant by that of the VH0/VK0 assayed in the same experiment.

| Binder | Kd | Relative KD (KD of variant / KD of VH0/VK0) | koff | kon |
| --- | --- | --- | --- | --- |
| B1 | 0.0358 nM | 1 | 9.72e-05 s⁻¹ | 2.72e+06 M⁻¹ s⁻¹ |
| B6 | 0.0379 nM | 1.06 | 9.88e-05 s⁻¹ |  |
| B7 | 0.0427 nM | 1.19 | 0.000109 s⁻¹ |  |
| B2 | 0.0529 nM | 1.48 | 0.000121 s⁻¹ |  |
| B3 | 0.0588 nM | 1.64 | 0.000128 s⁻¹ |  |
| B4 | 0.262 nM | 7.32 | 0.000444 s⁻¹ |  |
| B5 | 0.0523 nM | 1.46 | 0.000118 s⁻¹ |  |
| B8 | 0.0475 nM | 1.33 | 0.00011 s⁻¹ |  |
| B9 | 0.0487 nM | 1.36 | 0.000116 s⁻¹ |  |
| B10 | 0.223 nM | 6.23 | 0.000365 s⁻¹ |  |
| B11 | 0.0551 nM | 1.54 | 0.000119 s⁻¹ |  |
| B12 | 0.0555 nM | 1.55 | 0.000122 s⁻¹ |  |
| B13 | 0.267 nM | 7.46 | 0.000414 s⁻¹ |  |
| B14 | 0.0606 nM | 1.69 | 0.000128 s⁻¹ |  |
| B15 | 0.0604 nM | 1.69 | 0.000132 s⁻¹ |  |
| B16 | 0.314 nM | 8.77 | 0.000497 s⁻¹ |  |
| B17 | 0.0586 nM | 1.64 | 0.000125 s⁻¹ |  |
| B18 | 0.0596 nM | 1.66 | 0.000129 s⁻¹ |  |
| B19 | 0.287 nM | 8.02 | 0.000466 s⁻¹ |  |
| B20 | 0.0499 nM | 1.39 | 0.000113 s⁻¹ |  |
| B21 | 0.222 nM | 6.2 | 0.000344 s⁻¹ |  |
| B22 | 0.053 nM | 1.48 | 0.00012 s⁻¹ |  |
| B23 | 0.244 nM | 6.82 | 0.000388 s⁻¹ |  |
